Here are results for 3 molecules from patent publication US6969760B2, “Jak kinases and regulation of cytokine signal transduction” (St. Jude Children's Research Hospital, priority 1993, dated 2005).

Assay [1] relates to wild-type 2C4 and γ-1/Jak2 transfectants. As to the kind of experiment: IFN-γ response (cell surface markers, IFN-inducible mRNAs) of wild-type 2C4 and γ-1/Jak2 transfectants. The format is cell-based, human. As for the experimental part: Cell surface expression of transfected CD2 and endogenous Class I and II HLAs in response to IFNs-α or -γ on wild-type 2C4, mutant γ-1 cells and mutant γ-1 cells stably transfected with a murine Jak2 cDNA expression construct. Data was generated for an enriched population and a clone of γ-1/Jak2 transfectants using FACSCAN (BECTON DICKINSON) analyses (3000 data points, Consort 30). Cells were plated at 5×10^5/10 cm dish and treated the following day with 10^3 IU/ml of a highly purified mixture of α-IFNs (WELLFERON 1.5×10^8 IU/mg protein, kindly supplied by WELLCOME […]. LABORATORIES, Beckenham, UK) or recombinant human IFN-γ (4×10^7 IU/mg protein, obtained from Dr. Gunter Adolf, Ernst Boehringer Institut fur Arzneimittelforschung, Vienna, Austria, and commercially or readily available). […]
IFN-inducible gene expression in wild type 2C4, mutant γ-1 and mutant γ-1/Jak2 transfected cells: mRNA expression in response to IFNs-α or -γ was monitored by RNase protection using probes to detect the IFN-inducible mRNAs of: the 9-27, 6-16, 2-5A synthetase and ISGF3γ genes and the p91 and p84 alternatively spliced products of the p91/84 ISGF3α gene and the IRF1 and GBP genes. […]

Another assay has as its system EMC virus. As to the kind of experiment: Antiviral assay versus EMC virus. It is filed as cell-based. The note with it: per 1 fmole of 125I-IFN-γ. As for the experimental part:
Binding of ^125I-labeled IFN-γ to 2C4 and mutant γ-1 cells: ^125I-IFN-γ (667 Ci/mMole, Amersham International, UK) treatment was of triplicate samples of 10^6 cells for 90 min at 0° C. Non-specific binding was subtracted. It was determined in parallel in the presence of a 200 fold excess of unlabeled IFN-γ and represented approximately 40% of the total radioactivity bound. In a parallel antiviral assay versus EMC virus 1 fmole of ^125I-IFN-γ was equivalent to 0.15 IU. Specific binding at the highest IFN-γ concentration here corresponded to about 6000 receptors per cell.

Another assay has as its system Jak3 and Jak1. As to the kind of experiment: IL-2/IL-4-induced tyrosine phosphorylation of Jaks in CTLL cells. It is filed as cell-based, murine.

Experimental for Jak3 and Jak1: IL-2 and IL-4 stimulation of Jak1 and Jak3 tyrosine phosphorylation and activation of Jak3 in vitro kinase activity. FIG. 9A: CTLL cells were deprived of growth factors for 14 hr and were either left unstimulated (lanes 1, 4, 7 and 10), were stimulated with 100 U/ml with IL-2 (Cetus) for 10 min (lanes 2,5,8 and 11) or were stimulated with 100 ng/ml of IL-4 (R&D) for 10 min (lanes 3, 6, 9 and 12). Extracts were prepared as previously described (Witthuhn et al., Cell: 227-236 (1993)) and used for immunoprecipitation with the indicated antisera. The immunoprecipitates were resolved by SDS-PAGE, electrophoretically transferred to nitrocellulose and the membranes were probed with the 4G10 monoclonal antibody (UBI) against phosphotyrosine. FIG. 9B: CTLL cells were deprived of growth factors for 14 hr and were either unstimulated (lane 1), stimulated with IL-2 (lane 2) or stimulated with IL-4 (lane 3) as above. Extracts were prepared and used for immunoprecipitation with the Jak3/Jak1 cross-reactive antipeptide antiserum against Tyk2. The immunoprecipitates were used in in vitro kinase assays as previously described (Witthuhn et al., Cell: 227-236 (1993)) and the products resolved by SDS-PAGE and visualized by autoradiography. […]

B1: IFN-γ: recombinant human IFN-γ (4×10^7 IU/mg protein) (protein)
chain: QDPYVKEAENLKKYFNAGHSDVADNGTLFLGILKNWKEESDRKIMQSQIVSFYFKLFKNFKDDQSIQKSVETIKEDMNVKFFNSNKKKRDDFEKLTNYSVTDLNVQRKAIHELIQVMAELSPAAKTGKRKRSQMLFRGRRASQ
Regarding B1, the “IFN-γ concentration giving an approaching maximal response” value in assay [1] is given as 100 IU/ml. In addition, the “IFN-γ concentration giving a clear response” value in assay [1] (dose response curves essentially identical) stood at 10 IU/ml.

B2: ^125I-IFN-γ: 125I-labeled IFN-γ (667 Ci/mMole, Amersham) (protein)
chain: QDPYVKEAENLKKYFNAGHSDVADNGTLFLGILKNWKEESDRKIMQSQIVSFYFKLFKNFKDDQSIQKSVETIKEDMNVKFFNSNKKKRDDFEKLTNYSVTDLNVQRKAIHELIQVMAELSPAAKTGKRKRSQMLFRGRRASQ
In the case of B2, in the assay with EMC virus, the “antiviral activity equivalent of 1 fmole” value turned out to be 0.15 IU.

B3: IL-4: IL-4 (R&D), cytokine (protein, UniProt P05112 25-153, looked up)
Interleukin-4: HKCDITLQEIIKTLNSLTEQKTLCTELTVTDIFAASKNTTEKETFCRAATVLRQFYSHHEKDTRCLGATAQQFHRHKQLIRFLKRLDRNLWGLAGLNSCPVKEANQSTLENFLERLKTIMREKYSKCSS
As for B3, the “onset of phosphorylation of the Jaks following stimulation” value in the assay with Jak3 and Jak1 was “detectable within one minute”.
